Reference: publication PMC12084609, “Structural insights into small-molecule agonist recognition and activation of complement receptor C3aR” (The EMBO Journal, 2025)
Residue numbers refer to the chain shown, from its start. Where “and” joins values, the source holds several entries; their conditions need not be identical. Equal values may be shown once.

Experiments:
Format in all cases: cell-based
C3aR H418^7.36A = biological target: T1, C3aR H418^7.36A (Homo sapiens, UniProt Q16581, H418A); test: GloSensor-based cAMP assay, C3aR mutant H418A; conditions: for cAMP response (% Forskolin): single replicates
T1 construct: expressed in transfected cells; host or cells: HEK293T
T1 sequence (Q16581 1-482 H418A): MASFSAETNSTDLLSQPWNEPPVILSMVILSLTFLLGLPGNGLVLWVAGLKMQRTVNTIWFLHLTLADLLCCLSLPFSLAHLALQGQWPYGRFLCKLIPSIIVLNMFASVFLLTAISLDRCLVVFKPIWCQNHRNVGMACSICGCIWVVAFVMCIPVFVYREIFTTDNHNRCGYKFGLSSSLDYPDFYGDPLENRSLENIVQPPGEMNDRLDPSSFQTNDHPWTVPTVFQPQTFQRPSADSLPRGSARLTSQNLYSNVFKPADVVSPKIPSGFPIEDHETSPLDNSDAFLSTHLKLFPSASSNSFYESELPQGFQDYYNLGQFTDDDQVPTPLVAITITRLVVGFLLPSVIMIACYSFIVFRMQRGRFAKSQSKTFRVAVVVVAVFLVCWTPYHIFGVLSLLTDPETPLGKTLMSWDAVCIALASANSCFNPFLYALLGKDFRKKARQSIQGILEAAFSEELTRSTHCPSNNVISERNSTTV
Description: (§1) HEK293T cells were seeded on 6-well plates (NEST) and transfected with pGlosensor™-22F plasmids (Promega) and pcDNA3.1 plasmids encoding C3aR or its mutants an with N-terminal FLAG tag. After 48 h, cells were detached with Accutase solution (Sigma-Aldrich) and washed with PBS, and resuspended in assay buffer (CO2-independent medium with 0.5 mg mL^−1D-luciferin). 100,000–200,000 cells were seeded on 96-well white bottom plates (SPL) and incubated at 37 °C for 45 min followed by 45 min incubation at room temperature. After 90 min of incubation, basal luminescence signals were recorded. In total, 25 μl of test ligand with various concentrations and 1 μM Forskolin (Sigma-Aldrich) were treated to the cells and luminescence signals were measured by Tristar 2 LB 942 multimode reader (Berthold). […] Relative luminescence unit (%) was calculated with the signal of wells treated with vehicle as 0% and the signal of wells treated with 1 μM Forskolin as 100% (DiRaddo et al, [2014]). Nonlinear regression was performed using a three-parameter logistic equation.

C3aR I421^7.39A = biological target: T2, C3aR I421^7.39A (Homo sapiens, UniProt Q16581, I421A); test: GloSensor-based cAMP assay, C3aR mutant I421A; conditions: for cAMP response (% Forskolin): I4217.39A, single replicates
T2 construct: expressed in transfected cells; host or cells: HEK293T
T2 sequence (Q16581 1-482 I421A): T1 sequence (Q16581 1-482 H418A) with A418H, I421A
Description: as §1

C3aR L82^2.64A = biological target: T3, C3aR L82^2.64A (Homo sapiens, UniProt Q16581, L82A); test: GloSensor-based cAMP assay, C3aR mutant L82A; conditions: for cAMP response (% Forskolin): L822.64A, single replicates
T3 construct: expressed in transfected cells; host or cells: HEK293T
T3 sequence (Q16581 1-482 L82A): T1 sequence (Q16581 1-482 H418A) with L82A, A418H
Description: as §1

[1] = Dunnett's multiple comparisons test, WT minus mutant

C3a: anaphylatoxin C3a, natural peptide ligand of C3aR (a 77-amino acid peptide), Sigma-Aldrich
Mean Diff. of pIC50, WT vs. H418A (C3aR H418^7.36A; [1]): 0.008 | cAMP response (% Forskolin) (C3aR H418^7.36A; H418A, Log[C3a (M)] -7): 25.95 % Forskolin and 18.34 % Forskolin and 14.90 % Forskolin and 10.15 % Forskolin | cAMP response (% Forskolin) (C3aR H418^7.36A; H418A, Log[C3a (M)] -8): 26.38 % Forskolin and 19.33 % Forskolin and 14.37 % Forskolin and 9.75 % Forskolin | cAMP response (% Forskolin) (C3aR H418^7.36A; H418A, Log[C3a (M)] -9): 37.00 % Forskolin and 39.46 % Forskolin and 38.86 % Forskolin and 18.94 % Forskolin | cAMP response (% Forskolin) (C3aR H418^7.36A; H418A, Log[C3a (M)] -10): 73.80 % Forskolin and 84.21 % Forskolin and 84.87 % Forskolin and 53.38 % Forskolin | cAMP response (% Forskolin) (C3aR H418^7.36A; H418A, Log[C3a (M)] -11): 92.78 % Forskolin and 94.37 % Forskolin and 96.55 % Forskolin and 91.56 % Forskolin | cAMP response (% Forskolin) (C3aR H418^7.36A; H418A, Log[C3a (M)] -12): 97.08 % Forskolin and 98.99 % Forskolin and 94.98 % Forskolin and 97.61 % Forskolin | ΔpIC50 ± SE of Diff. (C3aR H418^7.36A; H418^7.36A relative to WT C3aR): -0.008 ± 0.011 | IC50 (C3aR H418^7.36A; H418^7.36A, dose-response plot, read-out: IC50): 3.34 nM | pIC50 (Replicate) (C3aR H418^7.36A; H418^7.36A, individual replicates): 8.55 and 8.43 and 8.42 (2×) and 8.38 and 8.70 | pIC50 ± SEM (Mean) (C3aR H418^7.36A; H418^7.36A, mean of independent experiments): 8.49 | cAMP response (% Forskolin) (C3aR H418^7.36A; H4187.36A, Log[C3a (M)] -7): 18.06 % Forskolin and 18.98 % Forskolin and 15.70 % Forskolin and 12.14 % Forskolin and 13.13 % Forskolin and 12.07 % Forskolin and 13.03 % Forskolin | cAMP response (% Forskolin) (C3aR H418^7.36A; H4187.36A, Log[C3a (M)] -8): 24.13 % Forskolin and 25.40 % Forskolin and 25.03 % Forskolin and 14.18 % Forskolin and 21.72 % Forskolin and 18.92 % Forskolin and 21.43 % Forskolin | cAMP response (% Forskolin) (C3aR H418^7.36A; H4187.36A, Log[C3a (M)] -9): 81.20 % Forskolin and 92.26 % Forskolin and 92.38 % Forskolin and 94.46 % Forskolin and 94.81 % Forskolin and 73.56 % Forskolin and 81.94 % Forskolin | cAMP response (% Forskolin) (C3aR H418^7.36A; H4187.36A, Log[C3a (M)] -10): 97.67 % Forskolin and 104.16 % Forskolin and 99.86 % Forskolin and 96.43 % Forskolin and 93.22 % Forskolin and 100.34 % Forskolin and 90.38 % Forskolin | cAMP response (% Forskolin) (C3aR H418^7.36A; H4187.36A, Log[C3a (M)] -11): 100.38 % Forskolin and 103.33 % Forskolin and 102.03 % Forskolin and 95.26 % Forskolin and 97.84 % Forskolin and 98.73 % Forskolin and 97.27 % Forskolin | cAMP response (% Forskolin) (C3aR H418^7.36A; H4187.36A, Log[C3a (M)] -12): 93.49 % Forskolin and 89.91 % Forskolin and 97.60 % Forskolin and 95.65 % Forskolin and 97.38 % Forskolin and 104.40 % Forskolin and 97.91 % Forskolin | Mean Diff. of pIC50, WT vs. I421A (C3aR I421^7.39A; [1]): -0.119 | reduction in ligand-induced signaling vs WT (C3aR I421^7.39A; I421^7.39A mutant): minor effect | ΔpIC50 ± SE of Diff. (C3aR I421^7.39A; I421^7.39A relative to WT C3aR): 0.12 ± 0.03 | IC50 (C3aR I421^7.39A; I421^7.39A, dose-response plot, read-out: IC50): 2.54 nM | pIC50 (Replicate) (C3aR I421^7.39A; I421^7.39A, individual replicates): 8.63 and 8.57 and 8.45 and 8.43 and 8.89 and 8.83 | pIC50 ± SEM (Mean) (C3aR I421^7.39A; I421^7.39A, mean of independent experiments): 8.61 | cAMP response (% Forskolin) (C3aR I421^7.39A; Log[C3a (M)] -7): 16.32 % Forskolin and 12.05 % Forskolin and 12.43 % Forskolin and 14.57 % Forskolin and 9.51 % Forskolin and 8.99 % Forskolin and 8.25 % Forskolin | cAMP response (% Forskolin) (C3aR I421^7.39A; Log[C3a (M)] -8): 20.11 % Forskolin and 16.00 % Forskolin and 16.82 % Forskolin and 18.52 % Forskolin and 13.73 % Forskolin and 11.22 % Forskolin and 10.34 % Forskolin | cAMP response (% Forskolin) (C3aR I421^7.39A; Log[C3a (M)] -9): 77.07 % Forskolin and 83.92 % Forskolin and 80.09 % Forskolin and 92.33 % Forskolin and 88.01 % Forskolin and 57.33 % Forskolin and 61.66 % Forskolin | cAMP response (% Forskolin) (C3aR I421^7.39A; Log[C3a (M)] -10): 97.12 % Forskolin and 96.88 % Forskolin and 97.52 % Forskolin and 98.66 % Forskolin and 91.65 % Forskolin and 90.54 % Forskolin and 92.28 % Forskolin | cAMP response (% Forskolin) (C3aR I421^7.39A; Log[C3a (M)] -11): 100.24 % Forskolin and 95.23 % Forskolin and 97.32 % Forskolin and 97.61 % Forskolin and 88.75 % Forskolin and 89.55 % Forskolin and 96.90 % Forskolin | cAMP response (% Forskolin) (C3aR I421^7.39A; Log[C3a (M)] -12): 96.20 % Forskolin and 95.22 % Forskolin and 96.06 % Forskolin and 97.86 % Forskolin and 95.09 % Forskolin and 99.13 % Forskolin and 96.01 % Forskolin | Mean Diff. of pIC50, WT vs. L82A (C3aR L82^2.64A; [1]): -0.166 | ΔpIC50 ± SE of Diff. (C3aR L82^2.64A; L82^2.64A relative to WT C3aR): 0.17 ± 0.05 | IC50 (C3aR L82^2.64A; L82^2.64A, dose-response plot, read-out: IC50): 1.98 nM | pIC50 (Replicate) (C3aR L82^2.64A; L82^2.64A, individual replicates): 8.88 and 8.82 and 8.71 and 8.44 | pIC50 ± SEM (Mean) (C3aR L82^2.64A; L82^2.64A, mean of independent experiments): 8.71 ± 0.10 and 8.71 | cAMP response (% Forskolin) (C3aR L82^2.64A; Log[C3a (M)] -7): 6.88 % Forskolin and 9.71 % Forskolin and 10.14 % Forskolin and 11.39 % Forskolin | cAMP response (% Forskolin) (C3aR L82^2.64A; Log[C3a (M)] -8): 8.74 % Forskolin and 11.60 % Forskolin and 12.67 % Forskolin and 19.68 % Forskolin | cAMP response (% Forskolin) (C3aR L82^2.64A; Log[C3a (M)] -9): 57.84 % Forskolin and 63.09 % Forskolin and 70.46 % Forskolin and 87.20 % Forskolin | cAMP response (% Forskolin) (C3aR L82^2.64A; Log[C3a (M)] -10): 90.69 % Forskolin and 88.60 % Forskolin and 91.27 % Forskolin and 91.83 % Forskolin | cAMP response (% Forskolin) (C3aR L82^2.64A; Log[C3a (M)] -11): 96.32 % Forskolin and 92.63 % Forskolin and 98.10 % Forskolin and 96.40 % Forskolin | cAMP response (% Forskolin) (C3aR L82^2.64A; Log[C3a (M)] -12): 96.44 % Forskolin and 101.07 % Forskolin and 97.65 % Forskolin and 97.10 % Forskolin
